Patent publication US20260209373A1 (TIANJIN MEDICAL UNIVERSITY GENERAL HOSPITAL, published 2026)

T1: human BAFFR on HEK-293T-BAFFR cells (human, UniProt Q96RJ3 1-184)
T1 sequence: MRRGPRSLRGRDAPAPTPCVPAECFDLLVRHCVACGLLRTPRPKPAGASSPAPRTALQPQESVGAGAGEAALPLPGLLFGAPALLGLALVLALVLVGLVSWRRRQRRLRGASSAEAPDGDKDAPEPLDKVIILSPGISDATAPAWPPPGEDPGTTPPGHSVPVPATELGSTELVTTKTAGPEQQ

T2: human BAFFR-his protein (Acro, BAR-HP2H6) (human, UniProt Q96RJ3 7-71, limits assumed)
T2 construct: Bought protein; not shown: his tag
T2 sequence: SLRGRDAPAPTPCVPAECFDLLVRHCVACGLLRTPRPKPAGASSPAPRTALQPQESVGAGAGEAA

B1: NB467-8 (Fc fusion)
chain: QVQLVESGGGLVQPGGSLRLSCAASGFSLEYYAIGWFRHIPGKEREAVSCISSPGDSTWYVDSVKGRFTISRDNAKNTVYLQMNSLKPEDTAVYHCAADVYYSGSYLSRSCNPHESKYWGQGTQVTVSS
notes: also called nanobody NB467-8; anti-BAFFR nanobody; not shown: Human IgG1 Fc fused to the VHH
B2: NB467-35 (Fc fusion)
chain: QVQLVESGGGLVQPGGSLRLSCAASGFSLEYYAIGWFRQTPGKEREAISCIDSPAKSTYYADSVKGRFTISRDNSKNTVYLQMNSLKAEDTAVYYCAADVYYRGSYLYRSCNPTESKYWGQGTQVTVSS
notes: also called nanobody NB467-35; anti-BAFFR nanobody; not shown: Human IgG1 Fc fused to the VHH
B3: NB467-46 (Fc fusion)
chain: EVQVVESGGGLVQPGGSLRLSCAASGFSLTYYAIGWFRQAPGKEREGVACISGGGDQLYYTDSVKGRFTISRDNAKNTVYLHMNSLKPEDTAVYYCAADVYYSGSYNYRSCNPAESKYWGQGTQVTVSS
notes: also called nanobody NB467-46; anti-BAFFR nanobody; not shown: Human IgG1 Fc fused to the VHH
B4: NB467-55 (Fc fusion)
chain: EVQVVESGGDLVQPGGSLKLSCQASGFSLTYYAIGWFRQAPGKEREEISCISGDGGMTYYADPVKGRFTISRDNGRNTVYLQMNSLKPEDTAVYYCAADVYYNGNYYSRSCNPAESKYWGQGTQVTVSA
notes: also called nanobody NB467-55; anti-BAFFR nanobody; not shown: Human IgG1 Fc fused to the VHH

Experiments:
[1] = target: T1, human BAFFR on HEK-293T-BAFFR cells; experiment: cell-based or functional assay
[2] = target: T1, human BAFFR on HEK-293T-BAFFR cells; experiment: flow cytometry on HEK-293T-BAFFR cells, anti-human Fc-647 secondary
Description: The cells were resuspended in a suitable volume of staining solution for flow cytometry, so that the final cell concentration per tube reached 2×10⁵ cells/mL.
The antibodies NB467-55, NB467-46, NB467-35, and NB467-8 produced in Example 1, and Lanalumab were respectively diluted to 200 nM. […] After incubation, the cells were washed once with a FACS buffer.
The anti-human FC-647 secondary antibody (Jackson, 109-605-003) was diluted according to the instructions, and 100 μl of the diluted secondary antibody was added to a sample tube. After uniform mixing, the system was incubated at 4° C. for 60 min. After incubation, the cells were washed 3 times with FACS, and the cell precipitate obtained by centrifugation was resuspended in 200 μl of PBS and detected by flow cytometry (Sony, SA3800).

[3] = target: human BAFFR-his protein (Acro, BAR-HP2H6) (human) (UniProt Q96RJ3); experiment: competition ELISA; plate-coated human BAFFR-his, competitor biotin human BAFF his at 0.2 ug/mL
[4] = target: T2, human BAFFR-his protein (Acro, …); experiment: as above
Description: Specifically, human BAFFR-his protein (Acro, BAR-HP2H6) was added to a 96-well microplate at 200 ng/well and incubated at 4° C. overnight. On the following day, the plate was washed 3 times with PBST. Then the plate was blocked with 5% w/v skim milk in PBST at 37° C. for 1 h, and then washed with PBS.
The antibody to be tested was 1:3 diluted over gradients from a concentration of 800 nM (diluted with 5% skim milk). Biotin Human BAFF his protein (Acro, BAF-H82Q2) was diluted to 0.2 μg/mL. Control group: 50 μL of diluted Biotin Human BAFF his protein and 50 μL of 5% milk. Experimental group: 50 μL of diluted Biotin Human BAFF his protein and 50 μL of antibody diluted over gradients.
Then, the antibody/Biotin Human BAFF his mixture was added to a plate coated with Human BAFFR-his protein, and incubated at 37° C. for 1 h. The plate was washed 5 times with PBST. The secondary antibody (Chengdu NBbiolab Biotechnology Co., Ltd.) 1:10K diluted with a blocking solution was added and incubate at 37° C. for 1 h. The plate incubated with the secondary antibody was washed 5 times with PBST. 100 μl of a TMB monocomponent developing solution was added to each well, and incubated at 37° C. for 7 min. The reaction was terminated with 50 μL/well of 1 M HCL, and then the absorption value at 450 nm was determined. The median inhibition concentration (IC50 value) was obtained by analyzing the data with Graphpad Prism software.

Molecule	EC50 (ng/ml), ADCC reporter assay (Jurkat-NFAT-CD16a luciferase) [1]	EC50 [2]	IC50 [3]	IC50 [4]
Lanalumab (antibody)	56.5 ng/mL	3.58 nM	310 nM	
B1	2.89 ng/mL	1.76 nM		30.5 nM
B2	2.67 ng/mL	3.24 nM		5.13 nM
B3	4.55 ng/mL	1.55 nM		30.5 nM
B4	5.09 ng/mL	1.55 nM		40.5 nM
